Biological target: T1, GPVIex (nonglycosylated human GPVI extracellular domain residues 1 to 183) (Homo sapiens)
T1 chain: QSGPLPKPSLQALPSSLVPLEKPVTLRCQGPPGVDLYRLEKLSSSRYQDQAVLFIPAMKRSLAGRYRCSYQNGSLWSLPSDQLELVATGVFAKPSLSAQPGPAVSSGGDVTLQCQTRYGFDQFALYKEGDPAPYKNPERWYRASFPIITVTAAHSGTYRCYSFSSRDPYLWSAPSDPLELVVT
Assay: crystal structure

- binding result: binds
B1: Glenzocimab (Fab, V domains shown)
VH: QVQLVQSGAEVKKPGASVKVSCKASGYTFTSYNMHWVRQAPGQGLEWMGGIYPGNGDTSYNQKFQGRVTMTRDTSTSTVYMELSSLRSEDTAVYYCARGTVVGDWYFDVWGQGTLVTVSS
VL: DIQMTQSPSSLSASVGDRVTITCRSSQSLENSNGNTYLNWYQQKPGKAPKLLIYRVSNRFSGVPSRFSGSGSGTDFTFTISSLQPEDIATYYCLQLTHVPWTFGQGTKVEIT

Reference: article PMC10119634 (Blood Advances, 2022)
